Target: T1, CasX 491 (engineered CasX)
T1 chain: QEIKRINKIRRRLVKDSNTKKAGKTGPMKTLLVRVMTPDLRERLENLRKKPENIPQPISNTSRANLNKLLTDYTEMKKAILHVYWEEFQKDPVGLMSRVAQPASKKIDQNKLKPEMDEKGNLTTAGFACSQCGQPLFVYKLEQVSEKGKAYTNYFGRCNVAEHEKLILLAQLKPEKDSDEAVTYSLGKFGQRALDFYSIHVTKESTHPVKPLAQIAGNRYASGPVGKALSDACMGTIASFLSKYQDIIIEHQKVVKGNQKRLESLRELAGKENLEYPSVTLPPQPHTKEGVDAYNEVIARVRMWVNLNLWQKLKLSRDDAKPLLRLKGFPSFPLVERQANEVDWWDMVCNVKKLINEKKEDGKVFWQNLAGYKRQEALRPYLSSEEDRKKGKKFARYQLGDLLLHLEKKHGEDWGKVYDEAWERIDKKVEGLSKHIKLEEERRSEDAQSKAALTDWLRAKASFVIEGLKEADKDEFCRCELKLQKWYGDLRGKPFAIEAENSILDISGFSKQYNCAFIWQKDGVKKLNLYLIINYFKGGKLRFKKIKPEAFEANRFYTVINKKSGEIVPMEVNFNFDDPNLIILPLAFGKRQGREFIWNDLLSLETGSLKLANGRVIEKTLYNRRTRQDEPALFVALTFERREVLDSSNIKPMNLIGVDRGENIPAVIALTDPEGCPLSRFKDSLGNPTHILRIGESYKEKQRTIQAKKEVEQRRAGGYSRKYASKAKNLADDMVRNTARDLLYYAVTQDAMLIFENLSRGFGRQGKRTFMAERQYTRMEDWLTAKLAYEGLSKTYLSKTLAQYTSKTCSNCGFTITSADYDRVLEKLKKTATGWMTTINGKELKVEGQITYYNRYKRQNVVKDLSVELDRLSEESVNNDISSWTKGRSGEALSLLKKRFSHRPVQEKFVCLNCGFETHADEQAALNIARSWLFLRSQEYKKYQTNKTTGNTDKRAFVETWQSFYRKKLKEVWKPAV
Assay: cell_activity; high dose; about 25% greater at low dose; PAM not stated for this spacer
Experimental: Cells were nucleofected with the indicated doses of p59 plasmids encoding CasX 491, the scaffold, and spacer 11.30 (5' […] 3', SEQ ID NO: 17) targeting mRHO. […] Cells were nucleofected with the indicated doses of p59 plasmids encoding CasX 491, the scaffold, and spacer 12.7 (5' […]-GUUU 3', SEQ ID NO: 1146) targeting repeat elements preventing expression of the tdTomato fluorescent protein. Editing was assessed 5 days post-transfection by FACS, to quantify the fraction of tdTomato positive cells.

B1: sgRNA scaffold 235 + spacer 12.7 ; tdTomato locus target (spacer 12.7 protospacer) (ssRNA ; dsDNA)
RNA: ACUGGCGCUUCUAUCUGAUUACUCUGAGCGCCAUCACCAGCGACUAUGUCGUAGUGGGUAAAGCCGCUUACGGACUUCGGUCCGUAAGAGGCAUCAGAGCUGCAUUCUAGUUGUGGUUU
DNA 1: CTGCATTCTAGTTGTGGTTT
DNA 2: AAACCACAACTAGAATGCAG
B1 was tested, and the activity was ~35 % greater than scaffold 174.
